Here are results for four molecules from EP4695300A2 (dated 2026).

The target of assay [1] is T1, Prostaglandin F2 Receptor Inhibitor (PTGFRN), expressed by cells (human, UniProt Q9P2B2 26-879).
T1 construct: whole, on cells; Also used for the endogenous protein in Brij-O10 cell lysates in the co-immunoprecipitation experiments; also called cell surface PTGFRN; prostaglandin F2 receptor negative regulator
T1 sequence (looked up): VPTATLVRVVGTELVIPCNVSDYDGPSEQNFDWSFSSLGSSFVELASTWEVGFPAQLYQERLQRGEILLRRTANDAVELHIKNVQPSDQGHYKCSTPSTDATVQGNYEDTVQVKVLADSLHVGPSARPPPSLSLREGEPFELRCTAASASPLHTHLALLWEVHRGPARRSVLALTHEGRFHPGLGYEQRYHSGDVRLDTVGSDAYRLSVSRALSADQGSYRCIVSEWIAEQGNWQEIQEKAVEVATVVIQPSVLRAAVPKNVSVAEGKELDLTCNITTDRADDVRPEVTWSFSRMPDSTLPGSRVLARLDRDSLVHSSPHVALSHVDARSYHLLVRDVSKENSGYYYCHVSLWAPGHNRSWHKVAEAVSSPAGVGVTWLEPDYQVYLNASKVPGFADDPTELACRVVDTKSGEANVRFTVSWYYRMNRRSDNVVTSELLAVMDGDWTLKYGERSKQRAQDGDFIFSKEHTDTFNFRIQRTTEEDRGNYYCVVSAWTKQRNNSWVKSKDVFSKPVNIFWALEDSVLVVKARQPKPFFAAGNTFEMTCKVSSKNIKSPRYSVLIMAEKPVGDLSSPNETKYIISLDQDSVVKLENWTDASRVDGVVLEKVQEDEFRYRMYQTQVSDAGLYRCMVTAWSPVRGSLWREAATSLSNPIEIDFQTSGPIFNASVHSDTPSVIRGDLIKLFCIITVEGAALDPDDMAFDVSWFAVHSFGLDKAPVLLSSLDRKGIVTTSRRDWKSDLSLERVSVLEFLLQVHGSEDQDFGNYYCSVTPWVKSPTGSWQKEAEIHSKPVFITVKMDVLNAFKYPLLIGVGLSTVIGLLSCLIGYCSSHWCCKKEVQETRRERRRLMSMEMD
Description: flow binding on cells.

Assay [2] has as its target T2, PTGFRN as used in the Octet / BLI affinity measurement (UniProt Q9P2B2 26-832, limits assumed).
T2 sequence (looked up): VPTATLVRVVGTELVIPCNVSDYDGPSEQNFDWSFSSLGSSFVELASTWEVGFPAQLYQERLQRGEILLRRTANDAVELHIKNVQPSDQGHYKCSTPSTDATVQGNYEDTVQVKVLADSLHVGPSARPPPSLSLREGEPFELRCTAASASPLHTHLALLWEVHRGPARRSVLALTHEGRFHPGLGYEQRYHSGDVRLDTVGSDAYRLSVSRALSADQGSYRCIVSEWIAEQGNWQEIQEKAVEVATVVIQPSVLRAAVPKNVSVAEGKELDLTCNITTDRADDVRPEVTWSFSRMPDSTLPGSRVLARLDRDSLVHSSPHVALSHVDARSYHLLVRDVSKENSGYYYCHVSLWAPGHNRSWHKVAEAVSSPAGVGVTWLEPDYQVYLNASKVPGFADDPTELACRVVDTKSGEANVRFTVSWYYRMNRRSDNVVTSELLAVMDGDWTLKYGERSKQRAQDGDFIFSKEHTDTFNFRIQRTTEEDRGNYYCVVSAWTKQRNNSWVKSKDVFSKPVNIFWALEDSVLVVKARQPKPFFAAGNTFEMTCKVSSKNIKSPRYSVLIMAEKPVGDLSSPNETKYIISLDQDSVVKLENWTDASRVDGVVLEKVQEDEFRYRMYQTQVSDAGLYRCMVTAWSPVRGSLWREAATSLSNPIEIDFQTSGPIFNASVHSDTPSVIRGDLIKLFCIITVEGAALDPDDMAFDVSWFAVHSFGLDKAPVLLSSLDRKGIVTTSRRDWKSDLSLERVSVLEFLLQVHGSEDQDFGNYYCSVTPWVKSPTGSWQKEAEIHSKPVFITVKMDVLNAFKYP
Description: Bi-Layer Interferometry (BLI), Octet Red96.

In assay [3] the target is T2, PTGFRN as used in the Octet / BLI …. Briefly: Octet method. (In general: In BLI a coated tip is dipped into the sample, and binding shifts an interference pattern.)

The term Kd denotes the free concentration of one partner at which half of the binding sites on the other are occupied at equilibrium, for simple one-to-one binding. High values mean weaker binding, low ones tighter binding.

B1: fully human anti-PTGFRN monoclonal antibody 12D8 (antibody, IgG1, V domains shown)
VH: EVQLVESGGGLVQPGRSLRLSCAASGFTFDDYAMHWVRQAPGKGLEWVSGISWSSGSLGYEDSVKGRFTISRDNAKKTLYLQMNSLRAEDTALYYCAKDMGFGDFLYYYGMDVWGQGTTVTVSS
VL: EIVLTQSPGTLSLSPGERATLSCRASQSVSSSYLTWYQQKPGQAPRLLIYGASSRATGIPDRFSGSGSGTDFTLTIRRLEPEDFAVYYCQQYGDSPPWTFGQGTKVEIK
As for B1, in assay [1], the binding result was “binds”.

B2: fully human anti-PTGFRN monoclonal antibody 8C7 (antibody, V domains shown)
VH: QLQLQESGPGLVKPSETLSLTCTVSGGSISSSSYYWGWIRQPPGKGLEWIGSIYYGGSTYYNPSLKSRVTISVDTSTNQFSLKLNSVTAADTAVYYCARQGLGSFDCWGQGTLVTVSS
VL: DVVMTQSPLSLPVTLGQPASISCRSSQSLVHSDGNTYLNWFQQRPGQSPRRLIYKVSNRDSGVPDRFSGSGSGTDFTLKISGVEAEDVGIYYCMQGTHWPPLTFGGGTKVEIK
notes: also called anti-PTGFRN antibody 8C7; internalizing anti-PTGFRN 8C7
Take B2: in assay [2], the Kd was found to be 0.001 nM.

B3: fully human anti-PTGFRN monoclonal antibody 6B2 (antibody, IgG1, V domains shown)
VH: QLQLQESGPGLVKPSETLSLTCTVSGGSISSSSYYWDWIRQPPGKGLEWIGTIYYGGSTYYNPSLKSRVTISVDTSKNQFSLKLNSVTAADTAVYYCARGNSYGLDYWGQGTLVTVSS
VL: DVVMTQSPLSLPVTLGQPASISCRSSQSLVHSDGNMYLNWFQQRPGQSPRRLIYKVSNRDSGVPDRFSGSGSGTDFTLKISRVEAEDVGIYYCMQSTHWPPVTFGQGTKLEIK
For B3, the binding result in assay [1] is listed as “binds”.

B4: fully human anti-PTGFRN monoclonal antibody 4F8 (antibody, IgG4, V domains shown)
VH: EVQLVESGEGLVQPGRSLRLSCAASGFTFDDYAMHWVRQAPGKGLEWVSGISWDSGRIGYADSVKGRFTISRDNAKNSLYLQMNSLRAEDTALYYCAKDRGGGNWNYYYYGMDVWGQGTTVTVSS
VL: DIQMTQSPSSLSASVGDRVTITCRASQGISNYLAWFQQKPGKAPKSLIYAASSLQSGVPSKFSGSGSGTDFTLTISSLQPEDFATYYCQQYNSFPFTFGPGTKVDIK
Turning to B4, in assay [3], binding was characterised by a dissociation constant (Kd) of 5.2 nM.
